Target: Fibronectin from human plasma (human) (UniProt P02751)
Experiment: cell-based or functional assay

UniProt P02751, sequence (P02751 other isoform, or with tags, fused parts or gaps limits assumed): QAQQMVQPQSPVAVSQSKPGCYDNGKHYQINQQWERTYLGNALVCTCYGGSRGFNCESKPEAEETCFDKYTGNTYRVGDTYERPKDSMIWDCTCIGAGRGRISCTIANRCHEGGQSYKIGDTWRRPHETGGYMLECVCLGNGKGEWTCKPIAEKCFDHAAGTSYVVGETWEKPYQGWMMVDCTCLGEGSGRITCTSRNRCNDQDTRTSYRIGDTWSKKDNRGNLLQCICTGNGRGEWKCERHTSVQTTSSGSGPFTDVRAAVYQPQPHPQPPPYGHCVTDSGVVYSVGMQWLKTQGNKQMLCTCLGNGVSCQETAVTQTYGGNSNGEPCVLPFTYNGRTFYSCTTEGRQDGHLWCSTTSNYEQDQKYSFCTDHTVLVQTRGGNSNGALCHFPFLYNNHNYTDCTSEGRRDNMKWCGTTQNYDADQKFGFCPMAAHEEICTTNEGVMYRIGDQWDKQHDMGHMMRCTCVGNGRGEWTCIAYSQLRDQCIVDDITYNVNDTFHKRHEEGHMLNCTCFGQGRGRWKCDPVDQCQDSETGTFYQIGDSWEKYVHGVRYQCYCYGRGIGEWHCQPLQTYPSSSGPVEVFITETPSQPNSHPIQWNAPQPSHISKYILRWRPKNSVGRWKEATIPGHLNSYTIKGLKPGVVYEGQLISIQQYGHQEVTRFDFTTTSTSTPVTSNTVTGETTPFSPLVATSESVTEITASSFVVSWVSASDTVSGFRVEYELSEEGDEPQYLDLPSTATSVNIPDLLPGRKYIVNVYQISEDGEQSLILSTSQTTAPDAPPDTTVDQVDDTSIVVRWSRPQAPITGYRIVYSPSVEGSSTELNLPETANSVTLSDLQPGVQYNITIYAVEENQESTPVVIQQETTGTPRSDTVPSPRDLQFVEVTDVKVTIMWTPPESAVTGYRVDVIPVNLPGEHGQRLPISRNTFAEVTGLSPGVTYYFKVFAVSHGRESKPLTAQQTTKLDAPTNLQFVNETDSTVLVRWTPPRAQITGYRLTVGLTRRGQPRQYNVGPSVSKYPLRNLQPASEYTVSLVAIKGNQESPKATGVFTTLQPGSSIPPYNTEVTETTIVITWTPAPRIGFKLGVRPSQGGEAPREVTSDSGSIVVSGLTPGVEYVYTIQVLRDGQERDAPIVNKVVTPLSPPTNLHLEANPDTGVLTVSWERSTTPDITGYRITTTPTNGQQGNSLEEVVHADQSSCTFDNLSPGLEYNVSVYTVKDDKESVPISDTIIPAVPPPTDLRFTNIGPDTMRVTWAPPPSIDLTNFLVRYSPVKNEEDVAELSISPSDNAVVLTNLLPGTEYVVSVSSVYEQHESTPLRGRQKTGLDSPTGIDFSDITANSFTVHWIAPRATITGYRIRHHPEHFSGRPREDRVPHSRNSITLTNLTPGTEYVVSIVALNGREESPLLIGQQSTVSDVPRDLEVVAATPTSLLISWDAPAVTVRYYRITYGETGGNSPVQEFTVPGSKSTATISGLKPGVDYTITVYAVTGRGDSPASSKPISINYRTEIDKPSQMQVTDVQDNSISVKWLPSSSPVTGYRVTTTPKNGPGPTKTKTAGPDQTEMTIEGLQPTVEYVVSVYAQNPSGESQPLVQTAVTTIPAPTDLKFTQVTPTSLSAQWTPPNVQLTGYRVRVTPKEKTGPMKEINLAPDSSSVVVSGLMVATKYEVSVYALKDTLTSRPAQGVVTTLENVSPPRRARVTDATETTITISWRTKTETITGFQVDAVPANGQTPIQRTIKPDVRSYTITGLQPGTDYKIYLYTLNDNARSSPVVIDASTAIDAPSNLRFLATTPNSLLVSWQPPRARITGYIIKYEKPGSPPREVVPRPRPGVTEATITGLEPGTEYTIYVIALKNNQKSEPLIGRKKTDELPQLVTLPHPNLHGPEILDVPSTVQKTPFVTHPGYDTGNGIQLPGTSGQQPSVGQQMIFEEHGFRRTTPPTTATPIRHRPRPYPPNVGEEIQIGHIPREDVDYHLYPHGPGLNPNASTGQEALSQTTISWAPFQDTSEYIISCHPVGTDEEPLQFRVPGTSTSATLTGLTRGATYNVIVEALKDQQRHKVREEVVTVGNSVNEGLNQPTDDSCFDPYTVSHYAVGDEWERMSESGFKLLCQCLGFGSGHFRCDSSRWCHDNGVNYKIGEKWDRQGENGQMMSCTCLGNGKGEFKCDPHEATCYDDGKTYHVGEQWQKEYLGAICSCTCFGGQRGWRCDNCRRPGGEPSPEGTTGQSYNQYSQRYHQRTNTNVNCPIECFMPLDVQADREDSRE

## yeast enolase (Sigma) (from UniProt P00924 2-437) (enzyme)
  inhibition of pneumococcal adherence to fibronectin: 98%

From EP0912608B1
